Reference: the nanobody polyreactivity screen of Harvey et al. (2022)

Test: yeast display, Sf9 membrane polyspecificity reagent, FACS + sequencing; frameworks hold sequencing errors
Procedure, shortened: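 Nanobodies came from a synthetic yeast display library in Saccharomyces cerevisiae BJ5465, induced with galactose for 36–48 hours and stained for 1 hour at 4 °C with 10% biotinylated, detergent-solubilized Sf9 membrane reagent. Cells were enriched on streptavidin microbeads and then FACS-sorted, with low and high (top ~1%) gates set on anti-HA fluorescence for expression and streptavidin fluorescence for reagent binding. Each polyreactivity label reflects the gate a clone came from. Genes were amplified by colony PCR, sequenced by MiSeq 2 × 250 and filtered by CDR length.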

Sequence | polyreactivity (PSR sort gate)
QVQLVESGGGLVQAGGSLRLSCAASGRIFFDYDMGWYRPAPGKERELVAAISSSGDSTYYADSVKGRFTISRDNAKNTVYLQMNSLKPEDTAVYYCNAKSVPVNYVAIKYDYWGQGTQVTVSS | high polyreactivity
QVQLVESGGGLVQAGGSLRLSCAASGRIFFKYAMGWYRQAPGKERELVAAISKTGGRTYYADSVKGRFTISRDNAKNTVYLQMNSLKPEDTAVYYCRGYTSFGYDYWGQGTQVTVSS | high polyreactivity
QVQLVESGGGLVQAGGSLRLSCAASGRIFFLYAMAWYRQAPGKEREFVAAISSSGGSTYYADSVKGRFTISRDNAKNTVYLKMNSLKPEDTAVYYCNADATWSGYIVSYDYWGQGTQVTVSS | low polyreactivity
QVQLVESGGGLVQAGGSLRLSCAASGRIFFPYAMGWYRQAPGKERELVAAISTSSGRTYYADSVKGRFTISRDNAKNTVYLQMNSLKPEDTAVYYCNTRPGSYSYSYRYYYWGQGTQVTVSS | high polyreactivity
QVQLVESGGGLVQAGGSLRLSCAASGRIFFPYAMGWYRQAPGKERELVAVITSGGTTYYADSVKGRFRISRDNAKNTVYLQMNSLKTEDTAVYYCAVHWYSYRYAATMDYWGQGTQVTVSS | high polyreactivity
QVQLVESGGGLVQAGGSLRLSCAASGRIFFRNAMGWYRQAPGKERELVAAITWNGGSTYYADSVKGRFTISRDIAKNTVYLQMNSLKPEDTAVYYCNKAGVSYRSQYYYWGQGTQVTVSS | high polyreactivity
QVQLVESGGGLVQAGGSLRLSCAASGRIFFRNAMGWYRQAPGKERELVAAITYSGGSTYYADSVKGRFTISRDNAKNTVYFQMNSLKPEDTAVYYCYADYYPYGEYDYWGQGTQVTVSS | high polyreactivity
QVQLVESGGGLVQAGGSLRLSCAASGRIFFRYAMGWYRQAPGKEREFVAAISGTGGSTYYADSVKGRFTISRDNAKNTVYLQMNSLKPEDTAVYYCAASVVSRPTYYAYYYWGQGTQVTVSS | high polyreactivity
QVQLVESGGGLVQAGGSLRLSCAASGRIFFRYTMGWYRQAPGKESELVAAITKRGGTYYADSVKGRFTISRDNAKNTVYLQMNSLKPEDTAVYYCNAVRYGINSYTYRRGYWGQGTQVTVSS | high polyreactivity
QVQLVESGGGLVQAGGSLRLSCAASGRIFFSYMGWYRQAPGKERELVAAISSGGSTYYADSVKGRFTISRDNAKNTVYLQMNSLKPEDTAVYYCAARYRLDGTHMTGYAYYSWGQGTQVTVSS | high polyreactivity
QVQLVESGGGLVQAGGSLRLSCAASGRIFFWYAMGWYRQAPGKERELVAGITSGGSTNYADSVKGRFTISRDNAKNTVYLQMNSLKPEDTAVYYCNTVDSIPIGSGLYYYWGQGTQVTVSS | low polyreactivity
QVQLVESGGGLVQAGGSLRLSCAASGRIFFYYAMGWYRQAPGKERELVATISYSGGGTYYADSVKGRFTISRDNAKNTVYLQMNSLKPEDTAAYYCNARWGTPYYIQDFDYWGQGTQVTVSS | low polyreactivity
QVQLVESGGGLVQAGGSLRLSCAASGRIFGAYAMGWYRQAPGKERELVAAITSRGGNTYYADSVKGRFTISRDNAKNTVDLQMNSLKPEDTAVYYCAARHDKRRQYYFGQSAFDYWGQGTQVTVSS | low polyreactivity
QVQLVESGGGLVQAGGSLRLSCAASGRIFGAYAMGWYRQAPGKERELVAASSSGGSTYYADSVKGRFTISRDNAKNTVSLQMKSLNPEDTAVYYCAASSGNGYGYWGQGTQVSVSS | high polyreactivity
QVQLVESGGGLVQAGGSLRLSCAASGRIFGAYAMGWYRQAPGKERELVATITKRGGSTFYADSVKGRFTISRDNAKNTVYLQMNSLKPEDTAVYYCAVSSFYRGRYDYWGQGTQVTVSS | high polyreactivity
QVQLVESGGGLVQAGGSLRLSCAASGRIFGCYAMGWYRQAPGKERELVAAISSGGNTKYADSVKGRFTISRDNAKNTVYLQMNSLKPEDTAVYYCAAKFAQPDYRYDYWGQGTQVTVSS | high polyreactivity
QVQLVESGGGLVQAGGSLRLSCAASGRIFGDNGMGWYRQAPGKERELVTYADSVKGRFTISRDNAKNTVYLQLNSLQPEDTAVYYCYSPFGGKYDYWGQGTQVTVSS | low polyreactivity
QVQLVESGGGLVQAGGSLRLSCAASGRIFGDYAMGWYRQAPGKERELVADITWSGGSTYYADSVKGRFTISRDNAKNTVYLQMNSLKPEDTAVYYCNADVWFYYTFDYWGQGTQVTVSS | low polyreactivity
QVQLVESGGGLVQAGGSLRLSCAASGRIFGDYGMGWYRQAPGKDRELVAAITDRGGTTYYADSVKGRFTISRDNAKNTVYVQKNSLQPEDTAVYYCNADTVVVWYSPSREYDYWGQGTQVTVSS | low polyreactivity
QVQLVESGGGLVQAGGSLRLSCAASGRIFGEYAMGWYRQAPGKERELVAAISGGGSTYYADSVKGRFTISRDNAKNTVYLQMNSLKPEDTAVFYCAVYSVYHEYDYWGQGTQVTVSS | low polyreactivity
QVQLVESGGGLVQAGGSLRLSCAASGRIFGFNAMGWYRQAPGKERQLVAAISGRSGRTYYADSVKGRFTISRDNAKNTVYLQLNSLIPEDTAVYYCNTVGYRGPSWYVYWGQGTQVTVSS | high polyreactivity
QVQLVESGGGLVQAGGSLRLSCAASGRIFGFYTIGWYRQAPGKERELVATISWSGSGTYYADSVKGRFTISRDNAKNTVYLQMNSLKPEDTAVYYCNADWYYVGYDYWGQGTQVTVSS | low polyreactivity
QVQLVESGGGLVQAGGSLRLSCAASGRIFGGNAMGWYRQAPGKERELVAAINSSGGRTYYADSVKGRFTISRDNAKNTVYLQMNSLKPEDTAVYYCAARVGGNWYDYWGQGTQVTVSS | high polyreactivity
QVQLVESGGGLVQAGGSLRLSCAASGRIFGGYAMGWYRQAPGKERELVAAIRWSGGSTYADSVKGRFTISRDNAKYTVYLQMNSLKPEDTAVYYCNTVRSPPGHDYWGQGTQVTVSS | low polyreactivity
QVQLVESGGGLVQAGGSLRLSCAASGRIFGGYAMGWYRQAPGKERELVAAISNGGSTYYADSVKGRFTISRDNAKNTVYLQMNSLKPEDTAVYYCAARWNWTGYRYDHWGQGTQVTVSS | low polyreactivity
QVQLVESGGGLVQAGGSLRLSCAASGRIFGGYDMGWYRQAPGKERELVAAMTSDSSTTYADSVKGRFTISRDNAKNTVYLQMNSLKPEDTAVYYCAVQVNGPVFYRPYLDYDYWGQGTQVTVSS | low polyreactivity
QVQLVESGGGLVQAGGSLRLSCAASGRIFGHYAMGWYIQAPGKERELVAAISRGGSTNYADSVKGRFTISRDNAKNTVYLQINSLKPVDNAVYYCNAAYSDYEYDYWGQGTQVSVSS | low polyreactivity
QVQLVESGGGLVQAGGSLRLSCAASGRIFGHYAMGWYRQAPGKEMELVAAITIGGSTYYADSVKGRFTISRDNAKNTVYLQMNSLKPEDTAVYYCAKVGSNYRGRLGYWGQGTQVTVSS | low polyreactivity
QVQLVESGGGLVQAGGSLRLSCAASGRIFGHYAMGWYRQAPGKERELVAAISRGGSTYYADSVKGRFTISRDNAKNTVYLQMNSLKPEDTAVYYCNTTKAYGSLWWRGDYWGQGTQVTVSA | high polyreactivity
QVQLVESGGGLVQAGGSLRLSCAASGRIFGHYAMGWYRQAPGKERELVASITDGTSTNYADSVKGRFTISRDNAKNTVYLQMNSLKPEDTADYYCAADDRLQFPRGDYCGQGTQVTVSS | low polyreactivity
